Measurements: the supplement of paper PMC5998384

Legend:
HeLa Kyoto [1] = assay: thermal stability score vs G1/S (z-score of summed log2 fold changes over temperatures); higher = more thermally stable than in G1/S
HeLa Kyoto [2] = assay: melting temperature (median over replicates), in situ; higher = more thermally stable
HeLa Kyoto [3] = assay: solubility change mitosis vs G1/S (difference of NP-40 vs SDS log2 ratios) (log2 ratio difference); higher = more soluble in mitosis
HeLa Kyoto [4] = assay: solubility in G1/S (NP-40 vs SDS abundance) (log2 ratio); higher = more soluble; conditions: cell cycle stage: G1/S
[5] = cell cycle stage: early G1 (4.5 h after nocodazole release)
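Wherever melting temperature (median over replicates), in situ is given: HeLa Kyoto cells synchronized by double thymidine or nocodazole block, proteins quantified by TMT10plex mass spectrometry, three independent biological replicates.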
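Wherever solubility change mitosis vs G1/S (difference of NP-40 vs SDS log2 ratios) is given: synchronized HeLa Kyoto cells (double thymidine block for G1/S, nocodazole release for mitosis), protein amounts in NP-40 versus SDS lysates quantified by mass spectrometry, three biological replicates.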
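Wherever solubility in G1/S (NP-40 vs SDS abundance) is given: HeLa Kyoto cells arrested at G1/S by double thymidine block, proteins quantified by TMT10plex mass spectrometry in mild NP-40 versus SDS extracts, three biological replicates.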
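Wherever thermal stability score vs G1/S (z-score of summed log2 fold changes over temperatures) is given: synchronized HeLa Kyoto cells, proteins quantified by TMT10plex mass spectrometry, three biological replicates, mitosis taken 0.5 h after nocodazole release, G1/S directly after double thymidine block.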

| Sequence | thermal stability score (HeLa Kyoto [1]; [5]) | thermal stability score (HeLa Kyoto [1]; cell cycle stage: mitosis) | melting temperature (HeLa Kyoto [2]; cell cycle stage: G1/S) | melting temperature (HeLa Kyoto [2]; cell cycle stage: mitosis) | solubility change mitosis (log2) (HeLa Kyoto [3]) | solubility in G1/S (log2) (HeLa Kyoto [4]) |
| --- | --- | --- | --- | --- | --- | --- |
| MVPGEENQLVPKEDVFWRCRQNIFDEMKKKFLQIENAAEEPRVLCIIQDTTNSKTVNERITLNLPASTPVRKLFEDVANKVGYINGTFDLVWGNGINTADMAPLDHTSDKSLLDANFEPGKKNFLHLTDKDGEQPQILLEDSSAGEDSVHDRFIGPLPREGSGGSTSDYVSQSYSYSSILNKSETGYVGLVNQAMTCYLNSLLQTLFMTPEFRNALYKWEFEESEEDPVTSIPYQLQRLFVLLQTSKKRAIETTDVTRSFGWDSSEAWQQHDVQELCRVMFDALEQKWKQTEQADLINELYQGKLKDYVRCLECGYEGWRIDTYLDIPLVIRPYGSSQAFASVEEALHAFIQPEILDGPNQYFCERCKKKCDARKGLRFLHFPYLLTLQLKRFDFDYTTMHRIKLNDRMTFPEELDMSTFIDVEDEKSPQTESCTDSGAENEGSCHSDQMSNDFSNDDGVDEGICLETNSGTEKISKSGLEKNSLIYELFSVMVHSGSAAGGHYYACIKSFSDEQWYSFNDQHVSRITQEDIKKTHGGSSGSRGYYSSAFASSTNAYMLIYRLKDPARNAKFLEVDEYPEHIKNLVQKERELEEQEKRQREIERNTCKIKLFCLHPTKQVMMENKLEVHKDKTLKEAVEMAYKMMDLEEVIPLDCCRLVKYDEFHDYLERSYEGEEDTPMGLLLGGVKSTYMFDLLLETRKPDQVFQSYKPGEVMVKVHVVDLKAESVAAPITVRAYLNQTVTEFKQLISKAIHLPAETMRIVLERCYNDLRLLSVSSKTLKAEGFFRSNKVFVESSETLDYQMAFADSHLWKLLDRHANTIRLFVLLPEQSPVSYSKRTAYQKAGGDSGNVDDDCERVKGPVGSLKSVEAILEESTEKLKSLSLQQQQDGDNGDSSKSTETSDFENIESPLNERDSSASVDNRELEQHIQTSDPENFQSEERSDSDVNNDRSTSSVDSDILSSSHSSDTLCNADNAQIPLANGLDSHSITSSRRTKANEGKKETWDTAEEDSGTDSEYDESGKSRGEMQYMYFKAEPYAADEGSGEGHKWLMVHVDKRITLAAFKQHLEPFVGVLSSHFKVFRVYASNQEFESVRLNETLSSFSDDNKITIRLGRALKKGEYRVKVYQLLVNEQEPCKFLLDAVFAKGMTVRQSKEELIPQLREQCGLELSIDRFRLRKKTWKNPGTVFLDYHIYEEDINISSNWEVFLEVLDGVEKMKSMSQLAVLSRRWKPSEMKLDPFQEVVLESSSVDELREKLSEISGIPLDDIEFAKGRGTFPCDISVLDIHQDLDWNPKVSTLNVWPLYICDDGAVIFYRDKTEELMELTDEQRNELMKKESSRLQKTGHRVTYSPRKEKALKIYLDGAPNKDLTQD [USP47] | 0.111 | 0.427 | 49.6 °C | 49.7 °C | -0.168 | -0.111 |
| MVQLRPRASRAPASAEAMVDEGQLASEEEEAEHGLLLGQPSSGAAAEPLEEDEEGDDEFDDEAPEELTFASAQAEAREEERRVRETVRRDKTLLKEKRKRREELFIEQKKRKLLPDTILEKLTTASQTNIKKSPGKVKEVNLQKKNEDCEKGNDSKKVKVQKVQSVSQNKSYLAVRLKDQDLRDSRQQAAQAFIHNSLYGPGTNRTTVNKFLSLANKRLPVKRAAVQFLNNAWGIQKKQNAKRFKRRWMVRKMKTKK [NOL7] | -0.722 | -4.23 | 56.9 °C | 54 °C | 0.763 | -1.02 |
| MVSHGSSPSLLEALSSDFLACKICLEQLRAPKTLPCLHTYCQDCLAQLADGGRVRCPECRETVPVPPEGVASFKTNFFVNGLLDLVKARACGDLRAGKPACALCPLVGGTSTGGPATARCLDCADDLCQACADGHRCTRQTHTHRVVDLVGYRAGWYDEEARERQAAQCPQHPGEALRFLCQPCSQLLCRECRLDPHLDHPCLPLAEAVRARRPGLEGLLAGVDNNLVELEAARRVEKEALARLREQAARVGTQVEEAAEGVLRALLAQKQEVLGQLRAHVEAAEEAARERLAELEGREQVARAAAAFARRVLSLGREAEILSLEGAIAQRLRQLQGCPWAPGPAPCLLPQLELHPGLLDKNCHLLRLSFEEQQPQKDGGKDGAGTQGGEESQSRREDEPKTERQGGVQPQAGDGAQTPKEEKAQTTREEGAQTLEEDRAQTPHEDGGPQPHRGGRPNKKKKFKGRLKSISREPSPALGPNLDGSGLLPRPIFYCSFPTRMPGDKRSPRITGLCPFGPREILVADEQNRALKRFSLNGDYKGTVPVPEGCSPCSVAALQSAVAFSASARLYLINPNGEVQWRRALSLSQASHAVAALPSGDRVAVSVAGHVEVYNMEGSLATRFIPGGKASRGLRALVFLTTSPQGHFVGSDWQQNSVVICDGLGQVVGEYKGPGLHGCQPGSVSVDKKGYIFLTLREVNKVVILDPKGSLLGDFLTAYHGLEKPRVTTMVDGRYLVVSLSNGTIHIFRVRSPDS [TRIM56] | 0.0282 | 0.527 | 52.4 °C | 50.7 °C | 0.0648 | -0.379 |
| MVSPATRKSLPKVKAMDFITSTAILPLLFGCLGVFGLFRLLQWVRGKAYLRNAVVVITGATSGLGKECAKVFYAAGAKLVLCGRNGGALEELIRELTASHATKVQTHKPYLVTFDLTDSGAIVAAAAEILQCFGYVDILVNNAGISYRGTIMDTTVDVDKRVMETNYFGPVALTKALLPSMIKRRQGHIVAISSIQGKMSIPFRSAYAASKHATQAFFDCLRAEMEQYEIEVTVISPGYIHTNLSVNAITADGSRYGVMDTTTAQGRSPVEVAQDVLAAVGKKKKDVILADLLPSLAVYLRTLAPGLFFSLMASRARKERKSKNS [DHRS7B] | -0.951 | -0.984 | 51.6 °C | 51.4 °C | -0.121 | -0.22 |
| MVSVINTVDTSHEDMIHDAQMDYYGTRLATCSSDRSVKIFDVRNGGQILIADLRGHEGPVWQVAWAHPMYGNILASCSYDRKVIIWREENGTWEKSHEHAGHDSSVNSVCWAPHDYGLILACGSSDGAISLLTYTGEGQWEVKKINNAHTIGCNAVSWAPAVVPGSLIDHPSGQKPNYIKRFASGGCDNLIKLWKEEEDGQWKEEQKLEAHSDWVRDVAWAPSIGLPTSTIASCSQDGRVFIWTCDDASSNTWSPKLLHKFNDVVWHVSWSITANILAVSGGDNKVTLWKESVDGQWVCISDVNKGQGSVSASVTEGQQNEQ [SEC13] | -0.768 | -0.265 | 50.5 °C | 50.4 °C | -0.09 | -0.204 |
| MVVTRSARAKASIQAASAESSGQKSFAANGIQAHPESSTGSDARTTAESQTTGKQSLIPRTPKARKRKSRTTGSLPKGTEPSTDGETSEAESNYSVSEHHDTILRVTRRRQILIACSPVSSVRKKPKVTPTKESYTEEIVSEAESHVSGISRIVLPTEKTTGARRSKAKSLTDPSQESHTEAISDAETSSSDISFSGIATRRTRSMQRKLKAQTEKKDSKIVPGNEKQIVGTPVNSEDSDTRQTSHLQARSLSEINKPNFYNNDFDDDFSHRSSENILTVHEQANVESLKETKQNCKDLDEDANGITDEGKEINEKSSQLKNLSELQDTSLQQLVSQRHSTPQNKNAVSVHSNLNSEAVMKSLTQTFATVEVGRWNNNKKSPIKASDLTKFGDCGGSDDEEESTVISVSEDMNSEGNVDFECDTKLYTSAPNTSQGKDNSVLLVLSSDESQQSENSENEEDTLCFVENSGQRESLSGDTGSLSCDNALFVIDTTPGMSADKNFYLEEEDKASEVAIEEEKEEEEDEKSEEDSSDHDENEDEFSDEEDFLNSTKAKLLKLTSSSIDPGLSIKQLGGLYINFNADKLQSNKRTLTQIKEKKKNELLQKAVITPDFEKNHCVPPYSESKYQLQKKRRKERQKTAGDGWFGMKAPEMTNELKNDLKALKMRASMDPKRFYKKNDRDGFPKYFQIGTIVDNPADFYHSRIPKKQRKRTIVEELLADSEFRRYNRRKYSEIMAEKAANAAGKKFRKKKKFRN [DNTTIP2] | 2.7 | 4.77 | 48.9 °C | 52.4 °C | 1.04 | -2.06 |
| MVWDRQTKMEYEWKPDEQGLQQILQLLKESQSPDTTIQRTVQQKLEQLNQYPDFNNYLIFVLTKLKSEDEPTRSLSGLILKNNVKAHFQNFPNGVTDFIKSECLNNIGDSSPLIRATVGILITTIASKGELQNWPDLLPKLCSLLDSEDYNTCEGAFGALQKICEDSAEILDSDVLDRPLNIMIPKFLQFFKHSSPKIRSHAVACVNQFIISRTQALMLHIDSFIENLFALAGDEEPEVRKNVCRALVMLLEVRMDRLLPHMHNIVEYMLQRTQDQDENVALEACEFWLTLAEQPICKDVLVRHLPKLIPVLVNGMKYSDIDIILLKGDVEEDETIPDSEQDIRPRFHRSRTVAQQHDEDGIEEEDDDDDEIDDDDTISDWNLRKCSAAALDVLANVYRDELLPHILPLLKELLFHHEWVVKESGILVLGAIAEGCMQGMIPYLPELIPHLIQCLSDKKALVRSITCWTLSRYAHWVVSQPPDTYLKPLMTELLKRILDSNKRVQEAACSAFATLEEEACTELVPYLAYILDTLVFAFSKYQHKNLLILYDAIGTLADSVGHHLNKPEYIQMLMPPLIQKWNMLKDEDKDLFPLLECLSSVATALQSGFLPYCEPVYQRCVNLVQKTLAQAMLNNAQPDQYEAPDKDFMIVALDLLSGLAEGLGGNIEQLVARSNILTLMYQCMQDKMPEVRQSSFALLGDLTKACFQHVKPCIADFMPILGTNLNPEFISVCNNATWAIGEISIQMGIEMQPYIPMVLHQLVEIINRPNTPKTLLENTAITIGRLGYVCPQEVAPMLQQFIRPWCTSLRNIRDNEEKDSAFRGICTMISVNPSGVIQDFIFFCDAVASWINPKDDLRDMFCKILHGFKNQVGDENWRRFSDQFPLPLKERLAAFYGV [TNPO1] | 1.15 | -1.3 | 50.3 °C | 49.7 °C | -0.175 | -0.146 |
| MVWKVAVFLSVALGIGAVPIDDPEDGGKHWVVIVAGSNGWYNYRHQADACHAYQIIHRNGIPDEQIVVMMYDDIAYSEDNPTPGIVINRPNGTDVYQGVPKDYTGEDVTPQNFLAVLRGDAEAVKGIGSGKVLKSGPQDHVFIYFTDHGSTGILVFPNEDLHVKDLNETIHYMYKHKMYRKMVFYIEACESGSMMNHLPDNINVYATTAANPRESSYACYYDEKRSTYLGDWYSVNWMEDSDVEDLTKETLHKQYHLVKSHTNTSHVMQYGNKTISTMKVMQFQGMKRKASSPVPLPPVTHLDLTPSPDVPLTIMKRKLMNTNDLEESRQLTEEIQRHLDARHLIEKSVRKIVSLLAASEAEVEQLLSERAPLTGHSCYPEALLHFRTHCFNWHSPTYEYALRHLYVLVNLCEKPYPLHRIKLSMDHVCLGHY [LGMN] | 5.08 | 5.7 | 53.8 °C | 54.2 °C | -0.0973 | 0.416 |
| MWIQVRTIDGSKTCTIEDVSRKATIEELRERVWALFDVRPECQRLFYRGKQLENGYTLFDYDVGLNDIIQLLVRPDPDHLPGTSTQIEAKPCSNSPPKVKKAPRVGPSNQPSTSARARLIDPGFGIYKVNELVDARDVGLGAWFEAHIHSVTRASDGQSRGKTPLKNGSSCKRTNGNIKHKSKENTNKLDSVPSTSNSDCVAADEDVIYHIQYDEYPESGTLEMNVKDLRPRARTILKWNELNVGDVVMVNYNVESPGQRGFWFDAEITTLKTISRTKKELRVKIFLGGSEGTLNDCKIISVDEIFKIERPGAHPLSFADGKFLRRNDPECDLCGGDPEKKCHSCSCRVCGGKHEPNMQLLCDECNVAYHIYCLNPPLDKVPEEEYWYCPSCKTDSSEVVKAGERLKMSKKKAKMPSASTESRRDWGRGMACVGRTRECTIVPSNHYGPIPGIPVGSTWRFRVQVSEAGVHRPHVGGIHGRSNDGAYSLVLAGGFADEVDRGDEFTYTGSGGKNLAGNKRIGAPSADQTLTNMNRALALNCDAPLDDKIGAESRNWRAGKPVRVIRSFKGRKISKYAPEEGNRYDGIYKVVKYWPEISSSHGFLVWRYLLRRDDVEPAPWTSEGIERSRRLCLRLQYPAGYPSDKEGKKPKGQSKKQPSGTTKRPISDDDCPSASKVYKASDSAEAIEAFQLTPQQQHLIREDCQNQKLWDEVLSHLVEGPNFLKKLEQSFMCVCCQELVYQPVTTECFHNVCKDCLQRSFKAQVFSCPACRHDLGQNYIMIPNEILQTLLDLFFPGYSKGR [UHRF2] | 2.81 | 4.34 | 44.3 °C | 46.9 °C | 0.175 | -0.401 |
